# Biological target: biotinylated NM^K184C seed (Saccharomyces cerevisiae) (UniProt P05453)
# Test: capture of biotinylated seed (50% w/w) on Streptavidin-coated Dynabeads, SDS wash, scintillation counting
# Chain of biotinylated NM^K184C seed (Saccharomyces cerevisiae) (P05453 1-253 K184C): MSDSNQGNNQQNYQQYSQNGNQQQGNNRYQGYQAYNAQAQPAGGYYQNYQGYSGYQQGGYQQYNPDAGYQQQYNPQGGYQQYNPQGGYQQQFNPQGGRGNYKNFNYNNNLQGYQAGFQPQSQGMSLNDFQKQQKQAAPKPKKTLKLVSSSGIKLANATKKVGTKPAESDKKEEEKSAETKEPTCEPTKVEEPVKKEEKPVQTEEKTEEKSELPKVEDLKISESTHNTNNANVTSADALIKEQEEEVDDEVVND
substance,measurement,value
NM^T158C-iodo[1-14C]acetamide (from UniProt P05453 1-253),fraction of seed-bound NM soluble in SDS at early time points,50%

# — patent US20050266242A1
